Common to all, as to assay type: biochemical, Aspergillus niger
Substrate in data set [1]: OC[C@H]1OC(O)[C@H](O)[C@@H](O)[C@@H]1O
The data set can be described thus: Kinetic constants by ABTS assay, wt GOx. Particulars: other: wt GOx, 2.5-100 mM glucose. An excerpt:
(§1) For detection of GOx activity the ABTS assay was used. 2,2'-azino-bis(3-ethylbenzthiazoline-6-sulphonic acid (ABTS) is commonly used as a substrate with hydrogen peroxide for a peroxidase generating enzyme. Its use allows the reaction kinetics of peroxidases to be followed, to indirectly follow the reaction kinetics of a hydrogen peroxide-producing enzyme or to quantify the amount of hydrogen peroxide in a sample [vanGijlswijk, R.P.M., et al., Fluorochrome-labeled tyramides: Use in immunocytochemistry and fluorescence in situ hybridization. Journal of Histochemistry & Cytochemistry, 1997. 45(3): p. 375-382].
(§2) The kinetic constants were determined using the Specord 200 from (Analytik Jena, Germany) and the ABTS assay [Zhu, Z.W., et al. 2006, Making glucose oxidase fit for biofuel cell applications by directed protein evolution. Biosensors & Bioelectronics, 21(11): 2046-2051]. The measurements were performed in 1 ml of reaction volume and 1 cm light pathway cuvettes, using 2.5, 5, 10, 25, 50 and 100 mM glucose. The data were fitted using Origin 6 (OriginLab Corporation, Northampton).

Substrate in data set [2]: OC[C@H]1OC(O)[C@H](O)[C@@H](O)[C@@H]1O
As to the kind of experiment: Kinetic constants by ABTS assay, GOx mutant M12. Particulars: other: M12, 2.5-100 mM glucose.
Text: as §1, §2

Substrate in data set [3]: OC[C@H]1OC(O)[C@H](O)[C@@H](O)[C@@H]1O
The data set can be described thus: Kinetic constants by ABTS assay, parent GOx B11. Particulars: other: Parent GOx (B11), 2.5-100 mM glucose.
Text: as §1, §2

Among the data in patent publication EP2415863A1, “Mutant glucose oxidase” (B.R.A.I.N., priority 2010, dated 2012) are Km and kcat values, retold here.

B1: Aspergillus niger glucose oxidase (GOx), wild type, SEQ ID NO: 3 (Aspergillus niger) (protein)
chain: SNGIEASLLTDPKDVSGRTVDYIIAGGGLTGLTTAARLTENPNISVLVIESGSYESDRGPIIEDLNAYGDIFGSSVDHAYETVELATNNQTALIRSGNGLGGSTLVNGGTWTRPHKAQVDSWETVFGNEGWNWDNVAAYSLQAERARAPNAKQIAAGHYFNASCHGVNGTVHAGPRDTGDDYSPIVKALMSAVEDRGVPTKKDFGCGDPHGVSMFPNTLHEDQVRSDAAREWLLPNYQRPNLQVLTGQYVGKVLLSQNGTTPRAVGVEFGTHKGNTHNVYAKHEVLLAAGSAVSPTILEYSGIGMKSILEPLGIDTVVDLPVGLNLQDQTTATVRSRITSAGAGQGQAAWFATFNETFGDYSEKAHELLNTKLEQWAEEAVARGGFHNTTALLIQYENYRDWIVNHNVAYSELFLDTAGVASFDVWDLLPFTRGYVHILDKDPYLHHFAYDPQYFLNELDLLGQAAATQLARNISNSGAMQTYFAGETIPGDNLAYDADLSAWTEYIPYHFRPNYHGVGTCSMMPKEMGGVVDNAARVYGVQGLRVIDGSIPPTQMSSHVMTVFYAMALKISDAILEDYASMQ
notes: made in house; host or cells: Saccharomyces cerevisiae (pYES2 vector)
On to B1, for which the Km in data set [1] stood at 22.0 mM mM.

B2: Aspergillus niger glucose oxidase (GOx) variant M12, N2Y, K13E, T30V, I94V, K152R, SEQ ID NO: 1 (Aspergillus niger; I116V/K174R/K35E/N24Y/T52V) (protein)
chain: SYGIEASLLTDPEDVSGRTVDYIIAGGGLVGLTTAARLTENPNISVLVIESGSYESDRGPIIEDLNAYGDIFGSSVDHAYETVELATNNQTALVRSGNGLGGSTLVNGGTWTRPHKAQVDSWETVFGNEGWNWDNVAAYSLQAERARAPNARQIAAGHYFNASCHGVNGTVHAGPRDTGDDYSPIVKALMSAVEDRGVPTKKDFGCGDPHGVSMFPNTLHEDQVRSDAAREWLLPNYQRPNLQVLTGQYVGKVLLSQNGTTPRAVGVEFGTHKGNTHNVYAKHEVLLAAGSAVSPTILEYSGIGMKSILEPLGIDTVVDLPVGLNLQDQTTATVRSRITSAGAGQGQAAWFATFNETFGDYSEKAHELLNTKLEQWAEEAVARGGFHNTTALLIQYENYRDWIVNHNVAYSELFLDTAGVASFDVWDLLPFTRGYVHILDKDPYLHHFAYDPQYFLNELDLLGQAAATQLARNISNSGAMQTYFAGETIPGDNLAYDADLSAWTEYIPYHFRPNYHGVGTCSMMPKEMGGVVDNAARVYGVQGLRVIDGSIPPTQMSSHVMTVFYAMALKISDAILEDYASMQ
notes: made in house; host or cells: Saccharomyces cerevisiae (pYES2)
B2: in data set [2], the Km is 18.1 mM mM and the kcat is given as 150 s-1 s-1.

B3: Aspergillus niger glucose oxidase (GOx) parent mutant B11, T30V, I94V, SEQ ID NO: 5 (Aspergillus niger; I116V/T52V) (protein)
chain: SNGIEASLLTDPKDVSGRTVDYIIAGGGLVGLTTAARLTENPNISVLVIESGSYESDRGPIIEDLNAYGDIFGSSVDHAYETVELATNNQTALVRSGNGLGGSTLVNGGTWTRPHKAQVDSWETVFGNEGWNWDNVAAYSLQAERARAPNAKQIAAGHYFNASCHGVNGTVHAGPRDTGDDYSPIVKALMSAVEDRGVPTKKDFGCGDPHGVSMFPNTLHEDQVRSDAAREWLLPNYQRPNLQVLTGQYVGKVLLSQNGTTPRAVGVEFGTHKGNTHNVYAKHEVLLAAGSAVSPTILEYSGIGMKSILEPLGIDTVVDLPVGLNLQDQTTATVRSRITSAGAGQGQAAWFATFNETFGDYSEKAHELLNTKLEQWAEEAVARGGFHNTTALLIQYENYRDWIVNHNVAYSELFLDTAGVASFDVWDLLPFTRGYVHILDKDPYLHHFAYDPQYFLNELDLLGQAAATQLARNISNSGAMQTYFAGETIPGDNLAYDADLSAWTEYIPYHFRPNYHGVGTCSMMPKEMGGVVDNAARVYGVQGLRVIDGSIPPTQMSSHVMTVFYAMALKISDAILEDYASMQ
notes: made in house; host or cells: Saccharomyces cerevisiae (pYES2 plasmid B11 GOx)
As for B3, in data set [3], the Km came out at 16.0 mM mM and the kcat is 80.0 S-^1 S-^1.
